Target: T1, glutamyl-tRNA synthetase GluRS, C-terminally fused to GFP (S. cerevisiae, UniProt P46655 1-708)
T1 sequence: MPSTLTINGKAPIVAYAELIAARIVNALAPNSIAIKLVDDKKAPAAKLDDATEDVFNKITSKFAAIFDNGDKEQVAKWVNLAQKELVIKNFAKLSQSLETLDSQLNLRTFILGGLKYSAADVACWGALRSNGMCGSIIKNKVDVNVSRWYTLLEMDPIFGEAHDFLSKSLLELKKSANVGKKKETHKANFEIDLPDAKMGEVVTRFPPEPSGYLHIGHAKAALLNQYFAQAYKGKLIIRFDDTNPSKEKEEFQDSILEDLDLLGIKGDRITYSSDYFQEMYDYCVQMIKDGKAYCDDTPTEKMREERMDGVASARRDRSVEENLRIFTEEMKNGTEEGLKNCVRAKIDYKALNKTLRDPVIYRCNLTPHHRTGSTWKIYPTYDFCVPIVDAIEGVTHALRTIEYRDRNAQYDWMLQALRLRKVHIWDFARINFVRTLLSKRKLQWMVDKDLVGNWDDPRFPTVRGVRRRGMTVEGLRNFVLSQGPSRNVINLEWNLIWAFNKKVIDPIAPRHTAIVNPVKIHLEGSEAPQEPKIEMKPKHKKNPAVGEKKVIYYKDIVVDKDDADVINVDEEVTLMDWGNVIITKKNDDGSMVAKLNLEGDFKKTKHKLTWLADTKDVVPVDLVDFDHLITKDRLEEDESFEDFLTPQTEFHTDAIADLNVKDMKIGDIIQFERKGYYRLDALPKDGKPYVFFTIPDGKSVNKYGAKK
Assay: selective ribosome profiling

fold enrichment in footprints: ≥ 30 fold
B1: nascent MetRS (ribosome-nascent chain complexes) (natural protein)
chain: MSFLISFDKSKKHPAHLQLANNLKIALALEYASKNLKPEVDNDNAAMELRNTKEPFLLFDANAILRYVMDDFEGQTSDKYQFALASLQNLLYHKELPQQHVEVLTNKAIENYLVELKEPLTTTDLILFANVYALNSSLVHSKFPELPSKVHNAVALAKKHVPRDSSSFKNIGAVKIQADLTVKPKDSEILPKPNERNILITSALPYVNNVPHLGNIIGSVLSADIFARYCKGRNYNALFICGTDEYGTATETKALEEGVTPRQLCDKYHKIHSDVYKWFQIGFDYFGRTTTDKQTEIAQHIFTKLNSNGYLEEQSMKQLYCPVHNSYLADRYVEGECPKCHYDDARGDQCDKCGALLDPFELINPRCKLDDASPEPKYSDHIFLSLDKLESQISEWVEKASEEGNWSKNSKTITQSWLKDGLKPRCITRDLVWGTPVPLEKYKDKVLYVWFDATIGYVSITSNYTKEWKQWWNNPEHVSLYQFMGKDNVPFHTVVFPGSQLGTEENWTMLHHLNTTEYLQYENGKFSKSRGVGVFGNNAQDSGISPSVWRYYLASVRPESSDSHFSWDDFVARNNSELLANLGNFVNRLIKFVNAKYNGVVPKFDPKKVSNYDGLVKDINEILSNYVKEMELGHERRGLEIAMSLSARGNQFLQENKLDNTLFSQSPEKSDAVVAVGLNIIYAVSSIITPYMPEIGEKINKMLNAPALKIDDRFHLAILEGHNINKAEYLFQRIDEKKIDEWRAKYGGQQV

From paper PMC6372068 (Nature, 2018)
